Test results: US20240018255A1

How the values were obtained:
[1] = target: SIRPα V4 fusion Fc (mouse IgG2a) (human; mouse); test: ELISA, plate coated with SIRPα V4-Fc (mouse IgG2a), anti-hFab secondary, OD450
[2] = target: SIRPα V6 fusion Fc (mouse IgG2a) (human; mouse); test: ELISA, plate coated with SIRPα V6-Fc (mouse IgG2a), anti-hFab secondary, OD450
[3] = target: SIRPα V9 fusion Fc (mouse IgG2a) (human; mouse); test: ELISA, plate coated with SIRPα V9-Fc (mouse IgG2a), anti-hFab secondary, OD450
[4] = target: SIRPα V1 fusion Fc (mouse IgG2a) (human; mouse); test: ELISA, plate coated with SIRPα V1-Fc (mouse IgG2a), anti-hFab secondary, OD450; unit from the axis Log(Conc.(nM))
[5] = target: SIRPα V5 fusion Fc (mouse IgG2a) (human; mouse); test: ELISA, plate coated with SIRPα V5-Fc (mouse IgG2a), anti-hFab secondary, OD450; unit from the axis Log(Conc.(nM))
[6] = target: SIRPα V2 fusion Fc (mouse IgG2a) (human; mouse); test: ELISA, plate coated with SIRPα V2-Fc (mouse IgG2a), anti-hFab secondary, OD450; fit value of a flat curve, see non_binding
[7] = target: SIRPα V10 fusion Fc (mouse IgG2a) (human; mouse); test: ELISA, plate coated with SIRPα V10-Fc (mouse IgG2a), anti-hFab secondary, OD450; fit value of a flat curve, see non_binding
Sequence of SIRPα V10 fusion Fc (mouse IgG2a) (human; mouse) (chain, as listed by the source limits assumed): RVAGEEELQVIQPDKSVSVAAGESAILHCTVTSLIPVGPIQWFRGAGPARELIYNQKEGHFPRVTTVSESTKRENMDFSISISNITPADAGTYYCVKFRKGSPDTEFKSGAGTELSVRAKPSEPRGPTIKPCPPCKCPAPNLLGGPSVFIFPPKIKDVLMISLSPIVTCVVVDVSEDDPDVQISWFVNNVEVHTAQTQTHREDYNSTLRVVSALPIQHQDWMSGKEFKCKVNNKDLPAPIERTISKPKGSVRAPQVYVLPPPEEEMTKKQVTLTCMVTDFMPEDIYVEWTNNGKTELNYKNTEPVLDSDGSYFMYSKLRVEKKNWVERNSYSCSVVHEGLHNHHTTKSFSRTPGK

Sequence of SIRPα V1 fusion Fc (mouse IgG2a) (human; mouse) (chain, as listed by the source limits assumed): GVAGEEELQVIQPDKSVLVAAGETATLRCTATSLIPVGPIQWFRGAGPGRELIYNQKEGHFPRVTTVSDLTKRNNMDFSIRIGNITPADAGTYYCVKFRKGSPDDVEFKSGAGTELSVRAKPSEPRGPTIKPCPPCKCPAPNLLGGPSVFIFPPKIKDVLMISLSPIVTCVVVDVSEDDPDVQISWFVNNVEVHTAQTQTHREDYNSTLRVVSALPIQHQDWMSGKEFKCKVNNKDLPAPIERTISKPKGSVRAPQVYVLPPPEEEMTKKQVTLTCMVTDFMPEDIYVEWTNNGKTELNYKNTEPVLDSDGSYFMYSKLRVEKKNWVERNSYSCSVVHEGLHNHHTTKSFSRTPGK
Sequence of SIRPα V9 fusion Fc (mouse IgG2a) (human; mouse) (chain, as listed by the source limits assumed): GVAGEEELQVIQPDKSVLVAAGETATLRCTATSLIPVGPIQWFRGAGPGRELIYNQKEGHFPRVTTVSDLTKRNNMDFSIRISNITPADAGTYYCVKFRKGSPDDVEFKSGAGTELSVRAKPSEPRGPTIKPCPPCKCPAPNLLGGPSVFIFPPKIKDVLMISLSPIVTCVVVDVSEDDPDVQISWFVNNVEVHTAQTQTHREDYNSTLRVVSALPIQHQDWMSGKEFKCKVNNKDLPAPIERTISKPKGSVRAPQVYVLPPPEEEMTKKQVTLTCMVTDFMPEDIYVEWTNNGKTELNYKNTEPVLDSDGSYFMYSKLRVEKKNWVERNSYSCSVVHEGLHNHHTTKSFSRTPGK
Sequence of SIRPα V2 fusion Fc (mouse IgG2a) (human; mouse) (chain, as listed by the source limits assumed): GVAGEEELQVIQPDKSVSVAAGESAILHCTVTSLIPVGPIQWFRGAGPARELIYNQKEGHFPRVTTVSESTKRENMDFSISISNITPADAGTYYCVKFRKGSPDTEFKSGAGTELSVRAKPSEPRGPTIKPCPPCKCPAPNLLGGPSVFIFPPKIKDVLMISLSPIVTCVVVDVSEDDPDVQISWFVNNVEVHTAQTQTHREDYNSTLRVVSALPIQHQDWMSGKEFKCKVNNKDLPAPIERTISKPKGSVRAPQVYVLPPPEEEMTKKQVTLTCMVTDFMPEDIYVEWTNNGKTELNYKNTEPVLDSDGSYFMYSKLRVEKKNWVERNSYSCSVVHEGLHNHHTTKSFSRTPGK
Sequence of SIRPα V6 fusion Fc (mouse IgG2a) (human; mouse) (chain, as listed by the source limits assumed): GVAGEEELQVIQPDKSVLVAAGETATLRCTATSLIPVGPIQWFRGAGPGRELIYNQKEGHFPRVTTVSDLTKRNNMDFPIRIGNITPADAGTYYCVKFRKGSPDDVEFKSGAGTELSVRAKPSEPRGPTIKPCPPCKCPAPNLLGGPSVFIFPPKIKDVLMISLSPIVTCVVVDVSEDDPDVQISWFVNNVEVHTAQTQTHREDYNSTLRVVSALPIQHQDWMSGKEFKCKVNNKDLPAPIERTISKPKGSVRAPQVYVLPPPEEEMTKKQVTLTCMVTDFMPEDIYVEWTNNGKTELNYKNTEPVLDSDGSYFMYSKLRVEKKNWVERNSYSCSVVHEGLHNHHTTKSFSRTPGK
Sequence of SIRPα V5 fusion Fc (mouse IgG2a) (human; mouse) (chain, as listed by the source limits assumed): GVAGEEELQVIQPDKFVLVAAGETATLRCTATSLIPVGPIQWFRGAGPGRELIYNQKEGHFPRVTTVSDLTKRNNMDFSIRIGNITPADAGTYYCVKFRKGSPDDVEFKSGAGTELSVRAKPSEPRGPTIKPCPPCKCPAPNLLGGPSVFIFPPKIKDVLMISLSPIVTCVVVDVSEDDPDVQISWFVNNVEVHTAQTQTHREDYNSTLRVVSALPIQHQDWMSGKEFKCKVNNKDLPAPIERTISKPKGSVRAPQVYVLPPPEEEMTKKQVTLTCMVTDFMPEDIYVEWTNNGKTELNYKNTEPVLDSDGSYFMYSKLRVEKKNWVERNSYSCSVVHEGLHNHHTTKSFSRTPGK
Sequence of SIRPα V4 fusion Fc (mouse IgG2a) (human; mouse) (chain, as listed by the source limits assumed): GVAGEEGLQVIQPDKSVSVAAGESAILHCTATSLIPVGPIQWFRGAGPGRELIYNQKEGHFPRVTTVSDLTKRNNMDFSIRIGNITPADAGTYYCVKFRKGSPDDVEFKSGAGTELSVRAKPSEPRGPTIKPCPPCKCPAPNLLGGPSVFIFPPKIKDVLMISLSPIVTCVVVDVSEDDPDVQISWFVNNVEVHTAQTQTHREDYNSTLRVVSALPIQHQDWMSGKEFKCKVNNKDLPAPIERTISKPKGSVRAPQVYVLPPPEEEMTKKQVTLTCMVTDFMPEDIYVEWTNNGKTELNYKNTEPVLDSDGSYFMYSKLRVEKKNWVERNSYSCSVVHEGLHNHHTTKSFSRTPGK

EC50 (read off the curve) [1]: 100 pM
EC50 (read off the curve) [2]: 100 pM
EC50 (read off the curve) [3]: 200 pM
EC50 [4]: 154 pM
EC50 [5]: 130 pM
EC50 [6]: 55.4 pM
EC50 [7]: 55.4 pM
B1: anti-SIRPα antibody 18D5 of OSE Company (antibody, from a related filing, V domains shown)
VH: QVQLQQPGAELVRPGSSVKLSCKASGYTFTSYWVHWVKQRPIQGLEWIGNIDPSDSDTHYNQKFKDKASLTVDKSSSTAYMQLSSLTFEDSAVYYCVRGGTGTMAWFAYWGQGTLVTVSA
VL: DVVMTQTPLSLPVSLGDQASISCRSSQSLVHSYGNTYLYWYLQKPGQSPKLLIYRVSNRFSGVPDRFSGSGSGTDFTLKISRVEAEDLGVYFCFQGTHVPYTFGSGTKLEIKR
